The target in the assay is T1, CD33 (UniProt P20138 18-364, limits assumed).
T1 construct: whole, on cells; Endogenous antigen on Molm13 cells; also called cell surface antigen CD33; CD33-expressing Molm13 cells
Kind of assay: FACS on CD33-expressing Molm13 cells, Dig-Cy5 as payload. On the procedure:
Simultaneous antigen binding of the antibodies generated in example 1 was analyzed by FACS analysis on LeY-expressing MCF7 cells, CD33-expressing Molm13 cells and GPC3-expressing HepG2 cells using Dig-Cy5 as payload to address hapten binding.

T1 sequence (P20138 18-364 limits assumed): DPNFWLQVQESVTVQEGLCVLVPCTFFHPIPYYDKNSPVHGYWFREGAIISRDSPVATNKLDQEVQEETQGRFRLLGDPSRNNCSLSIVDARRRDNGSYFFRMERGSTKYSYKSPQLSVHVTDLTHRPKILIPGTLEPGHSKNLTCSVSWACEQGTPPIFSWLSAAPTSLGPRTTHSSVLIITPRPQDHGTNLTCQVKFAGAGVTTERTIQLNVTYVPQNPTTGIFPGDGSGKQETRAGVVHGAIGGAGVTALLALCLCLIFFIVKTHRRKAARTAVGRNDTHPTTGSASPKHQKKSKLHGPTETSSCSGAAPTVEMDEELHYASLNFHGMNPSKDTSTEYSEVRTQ

B1: BsAb Dig-CD33-Dig (bispecific antibody)
light: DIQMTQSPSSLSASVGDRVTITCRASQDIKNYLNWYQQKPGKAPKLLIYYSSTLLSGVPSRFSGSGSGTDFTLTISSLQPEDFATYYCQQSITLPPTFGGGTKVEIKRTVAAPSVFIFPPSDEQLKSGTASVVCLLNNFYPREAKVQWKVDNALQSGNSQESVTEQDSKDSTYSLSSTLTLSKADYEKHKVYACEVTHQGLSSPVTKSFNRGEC
heavy 1: QVQLVESGGGLVKPGGSLRLSCAASGFTFSDYAMSWIRQAPGKGLEWVSSINIGATYIYYADSVKGRFTISRDNAKNSLYLQMNSLRAEDTAVYYCARPGSPYEYDKAYYSMAYWGQGTTVTVSSASTKGPSVFPLAPSSKSTSGGTAALGCLVKDYFPEPVTVSWNSGALTSGVHTFPAVLQSSGLYSLSSVVTVPSSSLGTQTYICNVNHKPSNTKVDKKVEPKSCGGGGSGGGGSGGGGSGGGGSEVQLVQSGAEVKKPGSSVKVSCKASGYTITDSNIHWVRQAPGQSLEWIGYIYPYNGGTDYNQKFKNRATLTVDNPTNTAYMELSSLRSEDTAFYYCVNGNPWLAYWGQGTLVTVSSGQPREPQVYTLPPCRDELTKNQVSLWCLVKGFYPSDIAVEWESNGQPENNYKTTPPVLDSDGSFFLYSKLTVDKSRWQQGNVFSCSVMHEALHNHYTQKSLSLSPGK
heavy 2: QVQLVESGGGLVKPGGSLRLSCAASGFTFSDYAMSWIRQAPGKGLEWVSSINIGATYIYYADSVKGRFTISRDNAKNSLYLQMNSLRAEDTAVYYCARPGSPYEYDKAYYSMAYWGQGTTVTVSSASTKGPSVFPLAPSSKSTSGGTAALGCLVKDYFPEPVTVSWNSGALTSGVHTFPAVLQSSGLYSLSSVVTVPSSSLGTQTYICNVNHKPSNTKVDKKVEPKSCGGGGSGGGGSGGGGSGGGGSDIQLTQSPSTLSASVGDRVTITCRASESLDNYGIRFLTWFQQKPGKAPKLLMYAASNQGSGVPSRFSGSGSGTEFTLTISSLQPDDFATYYCQQTKEVPWSFGQGTKVEVKGQPREPQVCTLPPSRDELTKNQVSLSCAVKGFYPSDIAVEWESNGQPENNYKTTPPVLDSDGSFFLVSKLTVDKSRWQQGNVFSCSVMHEALHNHYTQKSLSLSPGK
notes: Trivalent, bispecific; no CH2; (Gly4Ser)4 connectors; In the FACS assay it carried Dig-Cy5 as payload
On to B1, for which the binding result is given as “binds”.

B2: BsAb CD33-Dig(SS)-CD33 (bispecific antibody)
light: DIQLTQSPSTLSASVGDRVTITCRASESLDNYGIRFLTWFQQKPGKAPKLLMYAASNQGSGVPSRFSGSGSGTEFTLTISSLQPDDFATYYCQQTKEVPWSFGQGTKVEVKRTVAAPSVFIFPPSDEQLKSGTASVVCLLNNFYPREAKVQWKVDNALQSGNSQESVTEQDSKDSTYSLSSTLTLSKADYEKHKVYACEVTHQGLSSPVTKSFNRGEC
heavy 1: EVQLVQSGAEVKKPGSSVKVSCKASGYTITDSNIHWVRQAPGQSLEWIGYIYPYNGGTDYNQKFKNRATLTVDNPTNTAYMELSSLRSEDTAFYYCVNGNPWLAYWGQGTLVTVSSASTKGPSVFPLAPSSKSTSGGTAALGCLVKDYFPEPVTVSWNSGALTSGVHTFPAVLQSSGLYSLSSVVTVPSSSLGTQTYICNVNHKPSNTKVDKKVEPKSCGGGGSGGGGSGGGGSGGGGSQVQLVESGGGLVKPGGSLRLSCAASGFTFSDYAMSWIRQAPGKCLEWVSSINIGATYIYYADSVKGRFTISRDNAKNSLYLQMNSLRAEDTAVYYCARPGSPYEYDKAYYSMAYWGQGTTVTVSSGQPREPQVYTLPPCRDELTKNQVSLWCLVKGFYPSDIAVEWESNGQPENNYKTTPPVLDSDGSFFLYSKLTVDKSRWQQGNVFSCSVMHEALHNHYTQKSLSLSPGK
heavy 2: EVQLVQSGAEVKKPGSSVKVSCKASGYTITDSNIHWVRQAPGQSLEWIGYIYPYNGGTDYNQKFKNRATLTVDNPTNTAYMELSSLRSEDTAFYYCVNGNPWLAYWGQGTLVTVSSASTKGPSVFPLAPSSKSTSGGTAALGCLVKDYFPEPVTVSWNSGALTSGVHTFPAVLQSSGLYSLSSVVTVPSSSLGTQTYICNVNHKPSNTKVDKKVEPKSCGGGGSGGGGSGGGGSGGGGSDIQMTQSPSSLSASVGDRVTITCRASQDIKNYLNWYQQKPGKAPKLLIYYSSTLLSGVPSRFSGSGSGTDFTLTISSLQPEDFATYYCQQSITLPPTFGCGTKVEIKGQPREPQVCTLPPSRDELTKNQVSLSCAVKGFYPSDIAVEWESNGQPENNYKTTPPVLDSDGSFFLVSKLTVDKSRWQQGNVFSCSVMHEALHNHYTQKSLSLSPGK
notes: as for B1
As for B2, the binding result is “binds”.

(Values after patent US20170369595A1 (Hoffmann-La Roche, published 2017).)
